{"source": "the DeepSol protein solubility set", "data": [{"experiment": "soluble on expression in E. coli; label from the status in PepcDB or PDB records", "values": [{"sequence": "MQLEYPLTNHMKGNIVLTQEKTAIAYYRVRSETVMLTDVEKKLKTKRKVARALNRLKANDGFEINLLPVNADIRGKMGAMRSLIDSNNYEVGVDKLMKTAMVLEQEMGMVYEYTWIIGVPLIKKDLAVDLKETVTNSISNVSEKFVKGLGFDVELAEYWEKDYREQELEVYQNLSELLIERLTEDELYYYQAYQFLKNIPHERQDVLSSQNLDNLMATKIKPLFGGGLHLNCDYGESYISYLPMGDVGVFLDGNHFLEVVQKMPFPVEVKIQATFAESKGQLALSGRSSRARTRTKNIMQEAHLAGSKQKRKIVEGQLSLDDLDQKIDDGVDIIDWKAVIVVSGSTKKQMRARKKYLINRFDSLDIPLIKATFDNPYLFQSTLFGNFLRMQTSRWQHTSTIESFAELNFFTSLHAGTKLGFYLGRVDTTLEEKEDRKSIISSSKNLIFMNMLLANKEGVDGKKTNNPHWALTGDTGNGKSVTAKTLFMQMALLKDRVLYIDPKKEMRKQFMYTINDPEYQKKYPLDVDFVKSFNFVTLDVRDTKNHGVLDPIVLFDETEAIATTKAMLTNIYEGTWNLKQKTEINEAIAKVVLERKEGKKVGFWHVIERLVESEISDVKDMGRFILSTVKGSVLELAFSHGDVEGLSFDKKVTILEIEDLDLPTDKNENLDENKRLSVTLMFALGTFCSKFGSRNPKEETVTFFDESWIFQSSPEGKAILKSMKRIGRSFNNFLVLITQSTNDLDDSEDGTGFGTVICFDEVQNREGVLKYLNLPVNEINMKWVSNMVQGQCLMKDMFGQTNRIVVHVIFEEWLELFKTVDDTEASKMENRFVA", "soluble on expression in E. coli": "not soluble"}, {"sequence": "MSLEKKNASTDEKGYYSNKISLEDLNKNIEDKKEQTIYFYQTSCVHCQKVSPIVVPLAKDLNVDMKVIDIENLNEPWDKYNIQGTPTIIHFKDGKEVSRISGEQSKDKFKEWFEQTKKEGHHHHHH", "soluble on expression in E. coli": "not soluble"}, {"sequence": "MGSDKIHHHHHHAQVNDTIQRTTGNDLYQGITRKLPYWQMVTPHGVQVTFAKTVHIIFPSAVRYVDLGSNWIIAGKADGAENVIRVKAATEGFPGETNFSVICEDGSFYSFNARYAHEPEMLNIEMKDFLENGDTTDFSHTRMNIHFRELAGESPLLVKLIMQSIYKEDRREIRHLGCKRFGVQFLLKSVHSHNGLFYFHTETRNRSNVAFRTDFIRFKIVDKKVPKRTAIQERVIDPVRSYNEVLVTEGKSDVRTVYAVPQFTIPDDKLLVIELFEKDGGRHQTIRVENADLVAARQINELKIK", "soluble on expression in E. coli": "not soluble"}, {"sequence": "AIAAMGRTTQFTLDEVAKHADKDSCWLVIDGKVYAVEKFLNEHPGGEDVLLETAGRDATREFEDVGHSKSAREQLKEFYIGDVREPTAEELAAKRAVQASAAAERRDGDGVRANGLGKERLFAGGAFGAEPLSGGSSTWTLLKRLFVPVCIAVLVYLVREYSKQVQTGG", "soluble on expression in E. coli": "soluble"}, {"sequence": "MGSDKIHHHHHHMKEWRRNILGRELVVQYGKVAKQSSGSALVRFGDTVVLATANISDKAVEGIDFVPLTVEFQERFYAAGKIPGGFIKREGKPSESAILSARLIDRPIRPLFPKKLRNEVQVIVTVLSVDPNVPPDVVGIFAASLALNVSKIPFEGIVAGIRVGYRDGQFIALPSEEDIEKGLMDITVAGTKDAVTMVEGEAKEVTEEDMVKALRFAHSVIKELVDFQEEILSEFNVEKIPVVEPTPPEGLVEAFKDLLNKEELERRILVKVKKEREVALKEYEEQLLNQIAEKLSVTDLEGIKPFVSELYEDAVKKTMRRLIVEKGIRADGRKPTEIRPISCEVGLFPRTHGSALFTRGETQSLGIVTLGAPMDVQIIDTLLEEGVKRFMLHYNFPPFCTGEVKPLRGPSRREIGHGHLAERALKNMLPPEEEFPYTIRVVSEILESNGSSSMATVCSGSLALMDAGVPIKKHVAGIAMGLILEEDAEIILTDIIGMEDHYGDMDFKVAGTRDGITAFQMDCKVSGVSDELLMKALMQAREARMYILDRMYETISAPRPHLSKYAPIIKVTKVDPEKVADVIGPGGRVIKKIIKDFDVKVEIDDETGLVKVVGSSEENVDKAIELIREIAKEIEVGEVLEGKVTRIEPYGLFIEVRPGKIGLLHQSKVGEDMRQFLKKVKVGDTIKVQVINIDDLGRLQFKRVTEGENTQHGKTHSKRN", "soluble on expression in E. coli": "not soluble"}, {"sequence": "MNQRKLDHEVKTLQVQAAQFAKQTGQWIGMVENFNQALKEIGDVENWARSIELDMRTIATALEYVYKGQLQSAPS", "soluble on expression in E. coli": "soluble"}, {"sequence": "TTIVSVRRNGHVVIAGDGQATLGNTVMKGNVKKVRRLYNDKVIAGFAGGTADAFTLFELFERKLEMHQGHLVKAAVELAKDWRTDRMLRKLEALLAVADETASLIITGNGDVVQPENDLIAIGSGGPYAQAAARALLENTELSAREIAEKALDIAGDICIYTNHFHTIEELSYKAEFHHHHHH", "soluble on expression in E. coli": "soluble"}]}]}
